Source: PMC10786891, “Massively parallel profiling of RNA-targeting CRISPR-Cas13d”

T1: EsCas13d, nuclease-dead (Eubacterium siraeum, UniProt B0MS50, R295A;H300A;R849A;H854A)
T1 sequence: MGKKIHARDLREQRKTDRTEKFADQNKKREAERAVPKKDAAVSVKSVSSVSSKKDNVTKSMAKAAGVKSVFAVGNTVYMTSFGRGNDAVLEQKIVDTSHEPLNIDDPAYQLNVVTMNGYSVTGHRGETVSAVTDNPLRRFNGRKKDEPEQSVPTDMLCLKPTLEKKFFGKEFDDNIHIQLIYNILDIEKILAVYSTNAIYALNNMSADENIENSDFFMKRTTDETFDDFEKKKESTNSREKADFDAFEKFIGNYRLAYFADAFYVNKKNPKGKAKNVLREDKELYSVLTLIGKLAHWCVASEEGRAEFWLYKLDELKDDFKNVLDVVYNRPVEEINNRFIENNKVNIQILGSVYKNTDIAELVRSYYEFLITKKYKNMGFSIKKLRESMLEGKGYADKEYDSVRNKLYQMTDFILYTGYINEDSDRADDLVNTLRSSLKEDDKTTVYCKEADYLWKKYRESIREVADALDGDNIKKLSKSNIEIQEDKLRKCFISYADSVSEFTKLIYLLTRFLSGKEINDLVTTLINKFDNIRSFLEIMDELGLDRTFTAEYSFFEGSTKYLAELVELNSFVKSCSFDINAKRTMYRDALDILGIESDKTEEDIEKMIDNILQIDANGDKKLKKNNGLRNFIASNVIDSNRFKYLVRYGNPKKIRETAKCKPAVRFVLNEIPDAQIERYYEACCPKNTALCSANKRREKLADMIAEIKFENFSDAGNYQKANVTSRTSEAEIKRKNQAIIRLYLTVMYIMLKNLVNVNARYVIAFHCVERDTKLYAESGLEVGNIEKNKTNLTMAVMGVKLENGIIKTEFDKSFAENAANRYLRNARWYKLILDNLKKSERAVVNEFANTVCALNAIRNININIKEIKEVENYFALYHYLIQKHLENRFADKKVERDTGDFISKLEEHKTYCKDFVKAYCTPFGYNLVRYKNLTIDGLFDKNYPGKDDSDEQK

B1: target 1 insC 3' of 18,insG 3' of 8 (mixed)
RNA 1: CACCCGUGCAAAAAUGCAGGGGUCUAAAACUGAGCGGAUAACCUCUCUAUGG
RNA 2: GGGAAUGGAUCCACAUCUACGAAUUCGUACCAUACGAGAGGUUAUGCCGCUCACCGAGAUCGGAAGAGCACACGU
B2: target 1 C2G,G12U (mixed)
RNA 1: CACCCGUGCAAAAAUGCAGGGGUCUAAAACUGAGCGGAUAACCUCUCUAUGG
RNA 2: GGGAAUGGAUCCACAUCUACGAAUUCGUACCAUAGAGAGUUUAUCCGCUGACCGAGAUCGGAAGAGCACACGU
B3: target 1 insU 3' of 13,insA 3' of 4 (mixed)
RNA 1: CACCCGUGCAAAAAUGCAGGGGUCUAAAACUGAGCGGAUAACCUCUCUAUGG
RNA 2: GGGAAUGGAUCCACAUCUACGAAUUCGUACCAUAGAGAGUGUUAUCCGCAUCACCGAGAUCGGAAGAGCACACGU
B4: target 1 C6A,A14G (mixed)
RNA 1: CACCCGUGCAAAAAUGCAGGGGUCUAAAACUGAGCGGAUAACCUCUCUAUGG
RNA 2: GGGAAUGGAUCCACAUCUACGAAUUCGUACCAUAGAGGGGUUAUCAGCUCACCGAGAUCGGAAGAGCACACGU
B5: target 1 insU 3' of 13,insG 3' of 6 (mixed)
RNA 1: CACCCGUGCAAAAAUGCAGGGGUCUAAAACUGAGCGGAUAACCUCUCUAUGG
RNA 2: GGGAAUGGAUCCACAUCUACGAAUUCGUACCAUAGAGAGUGUUAUCCGGCUCACCGAGAUCGGAAGAGCACACGU
B6: target 1 insG 3' of 22,insA 3' of 10 (mixed)
RNA 1: CACCCGUGCAAAAAUGCAGGGGUCUAAAACUGAGCGGAUAACCUCUCUAUGG
RNA 2: GGGAAUGGAUCCACAUCUACGAAUUCGUACGCAUAGAGAGGUUAAUCCGCUCACCGAGAUCGGAAGAGCACACGU
B7: target 1 G5C,A20U (mixed)
RNA 1: CACCCGUGCAAAAAUGCAGGGGUCUAAAACUGAGCGGAUAACCUCUCUAUGG
RNA 2: GGGAAUGGAUCCACAUCUACGAAUUCGUACCUUAGAGAGGUUAUCCCCUCACCGAGAUCGGAAGAGCACACGU
B8: target 1 U10C,G15A (mixed)
RNA 1: CACCCGUGCAAAAAUGCAGGGGUCUAAAACUGAGCGGAUAACCUCUCUAUGG
RNA 2: GGGAAUGGAUCCACAUCUACGAAUUCGUACCAUAGAAAGGUCAUCCGCUCACCGAGAUCGGAAGAGCACACGU
B9: target 1 G5U,G15A (mixed)
RNA 1: CACCCGUGCAAAAAUGCAGGGGUCUAAAACUGAGCGGAUAACCUCUCUAUGG
RNA 2: GGGAAUGGAUCCACAUCUACGAAUUCGUACCAUAGAAAGGUUAUCCUCUCACCGAGAUCGGAAGAGCACACGU
B10: target 1 insU 3' of 15,insA 3' of 6 (mixed)
RNA 1: CACCCGUGCAAAAAUGCAGGGGUCUAAAACUGAGCGGAUAACCUCUCUAUGG
RNA 2: GGGAAUGGAUCCACAUCUACGAAUUCGUACCAUAGAGUAGGUUAUCCAGCUCACCGAGAUCGGAAGAGCACACGU
B11: target 1 U10A,G12U (mixed)
RNA 1: CACCCGUGCAAAAAUGCAGGGGUCUAAAACUGAGCGGAUAACCUCUCUAUGG
RNA 2: GGGAAUGGAUCCACAUCUACGAAUUCGUACCAUAGAGAGUUAAUCCGCUCACCGAGAUCGGAAGAGCACACGU
B12: target 1 insU 3' of 9,insA 3' of 5 (mixed)
RNA 1: CACCCGUGCAAAAAUGCAGGGGUCUAAAACUGAGCGGAUAACCUCUCUAUGG
RNA 2: GGGAAUGGAUCCACAUCUACGAAUUCGUACCAUAGAGAGGUUAUUCCGACUCACCGAGAUCGGAAGAGCACACGU
B13: target 1 U3G,G13A (mixed)
RNA 1: CACCCGUGCAAAAAUGCAGGGGUCUAAAACUGAGCGGAUAACCUCUCUAUGG
RNA 2: GGGAAUGGAUCCACAUCUACGAAUUCGUACCAUAGAGAAGUUAUCCGCGCACCGAGAUCGGAAGAGCACACGU
B14: target 1 U3C,C4A (mixed)
RNA 1: CACCCGUGCAAAAAUGCAGGGGUCUAAAACUGAGCGGAUAACCUCUCUAUGG
RNA 2: GGGAAUGGAUCCACAUCUACGAAUUCGUACCAUAGAGAGGUUAUCCGACCACCGAGAUCGGAAGAGCACACGU
B15: target 1 insU 3' of 4,insA 3' of 2 (mixed)
RNA 1: CACCCGUGCAAAAAUGCAGGGGUCUAAAACUGAGCGGAUAACCUCUCUAUGG
RNA 2: GGGAAUGGAUCCACAUCUACGAAUUCGUACCAUAGAGAGGUUAUCCGCUUCAACCGAGAUCGGAAGAGCACACGU
B16: target 1 insU 3' of 12,insG 3' of 11 (mixed)
RNA 1: CACCCGUGCAAAAAUGCAGGGGUCUAAAACUGAGCGGAUAACCUCUCUAUGG
RNA 2: GGGAAUGGAUCCACAUCUACGAAUUCGUACCAUAGAGAGGUUGUAUCCGCUCACCGAGAUCGGAAGAGCACACGU
B17: target 1 insU 3' of 18,insU 3' of 14 (mixed)
RNA 1: CACCCGUGCAAAAAUGCAGGGGUCUAAAACUGAGCGGAUAACCUCUCUAUGG
RNA 2: GGGAAUGGAUCCACAUCUACGAAUUCGUACCAUAUGAGAUGGUUAUCCGCUCACCGAGAUCGGAAGAGCACACGU
B18: target 1 insA 3' of 19,insG 3' of 19 (mixed)
RNA 1: CACCCGUGCAAAAAUGCAGGGGUCUAAAACUGAGCGGAUAACCUCUCUAUGG
RNA 2: GGGAAUGGAUCCACAUCUACGAAUUCGUACCAUAGAGAGAGGUUAUCCGCUCACCGAGAUCGGAAGAGCACACGU
B19: target 1 insG 3' of 10,insA 3' of 5 (mixed)
RNA 1: CACCCGUGCAAAAAUGCAGGGGUCUAAAACUGAGCGGAUAACCUCUCUAUGG
RNA 2: GGGAAUGGAUCCACAUCUACGAAUUCGUACCAUAGAGAGGUUGAUCCGACUCACCGAGAUCGGAAGAGCACACGU
B20: target 1 U19A,C22U (mixed)
RNA 1: CACCCGUGCAAAAAUGCAGGGGUCUAAAACUGAGCGGAUAACCUCUCUAUGG
RNA 2: GGGAAUGGAUCCACAUCUACGAAUUCGUAUCAAAGAGAGGUUAUCCGCUCACCGAGAUCGGAAGAGCACACGU
B21: target 1 C2A,C22G (mixed)
RNA 1: CACCCGUGCAAAAAUGCAGGGGUCUAAAACUGAGCGGAUAACCUCUCUAUGG
RNA 2: GGGAAUGGAUCCACAUCUACGAAUUCGUAGCAUAGAGAGGUUAUCCGCUAACCGAGAUCGGAAGAGCACACGU
B22: target 1 U10A,A20U (mixed)
RNA 1: CACCCGUGCAAAAAUGCAGGGGUCUAAAACUGAGCGGAUAACCUCUCUAUGG
RNA 2: GGGAAUGGAUCCACAUCUACGAAUUCGUACCUUAGAGAGGUAAUCCGCUCACCGAGAUCGGAAGAGCACACGU
B23: target 1 del15 (mixed)
RNA 1: CACCCGUGCAAAAAUGCAGGGGUCUAAAACUGAGCGGAUAACCUCUCUAUGG
RNA 2: GGGAAUGGAUCCACAUCUACGAAUUCGUACCAUAGAAGGUUAUCCGCUCACCGAGAUCGGAAGAGCACACGU
B24: target 1 A9C,U10A (mixed)
RNA 1: CACCCGUGCAAAAAUGCAGGGGUCUAAAACUGAGCGGAUAACCUCUCUAUGG
RNA 2: GGGAAUGGAUCCACAUCUACGAAUUCGUACCAUAGAGAGGUACUCCGCUCACCGAGAUCGGAAGAGCACACGU
B25: target 1 A9C,G12C (mixed)
RNA 1: CACCCGUGCAAAAAUGCAGGGGUCUAAAACUGAGCGGAUAACCUCUCUAUGG
RNA 2: GGGAAUGGAUCCACAUCUACGAAUUCGUACCAUAGAGAGCUUCUCCGCUCACCGAGAUCGGAAGAGCACACGU
B26: target 1 insU 3' of 20,insA 3' of 12 (mixed)
RNA 1: CACCCGUGCAAAAAUGCAGGGGUCUAAAACUGAGCGGAUAACCUCUCUAUGG
RNA 2: GGGAAUGGAUCCACAUCUACGAAUUCGUACCAUUAGAGAGGAUUAUCCGCUCACCGAGAUCGGAAGAGCACACGU
B27: target 1 insU 3' of 21,insA 3' of 5 (mixed)
RNA 1: CACCCGUGCAAAAAUGCAGGGGUCUAAAACUGAGCGGAUAACCUCUCUAUGG
RNA 2: GGGAAUGGAUCCACAUCUACGAAUUCGUACCUAUAGAGAGGUUAUCCGACUCACCGAGAUCGGAAGAGCACACGU
B28: target 1 A18C,C22U (mixed)
RNA 1: CACCCGUGCAAAAAUGCAGGGGUCUAAAACUGAGCGGAUAACCUCUCUAUGG
RNA 2: GGGAAUGGAUCCACAUCUACGAAUUCGUAUCAUCGAGAGGUUAUCCGCUCACCGAGAUCGGAAGAGCACACGU

Target: T1, EsCas13d, nuclease-dead
Assay: crRNA (strand 1, pre-loaded); Mg2+; 40 mM Tris-HCl pH 7.5, 150 mM NaCl, 6 mM MgCl2, 1 mM DTT, 0.1% Tween-20, 0.2 mg/ml BSA; 25 C; 10 min per concentration, then washed
Conditions: tags: His6-TwinStrep-SUMO cleaved; N-terminal SNAP kept (SNAP-Surface 488); label: 3' end held by stalled T7 RNA polymerase

First: B1
Second: B2
The Kd of the first is 7.5-fold higher: 53.4 ± 3.3 nM for the first, 7.14 ± 0.3 nM for the second. The second binds more tightly here.

B3 and B4 are within error of each other in Kd: 13.5 ± 1.5 nM for the first, 12.6 ± 0.9 nM for the second.

B5 and B6 are the same in Kd: 25 ± 5 nM for the first, 25 ± 1.5 nM for the second.

Going from B7 to B8, the Kd falls from 63 ± 12 nM to 31.3 ± 1.3 nM (2-fold). The second binds more tightly here.

B9 and B10 are within 1.5-fold of each other in Kd: 16.5 ± 1.3 nM for the first, 21.4 ± 2 nM for the second.

B11 and B12 are within 1.5-fold of each other in Kd: 8.6 ± 0.8 nM for the first, 6.6 ± 0.8 nM for the second.

First: B13
Second: B14
The Kd of the first is 2.2-fold lower: 5.4 ± 0.8 nM for the first, 12.1 ± 1.2 nM for the second.

B15 and B16 are within 1.5-fold of each other in Kd: 7.7 ± 0.6 nM for the first, 10.8 ± 0.7 nM for the second.

Compared with B17, B18 is 8.5-fold lower in Kd: 73 ± 12 nM for the first, 8.62 ± 0.31 nM for the second. The second binds more tightly here.

Going from B19 to B20, the Kd rises from 30.5 ± 3.4 nM to 70 ± 19 nM (2.3-fold).

B21 and B22 are within error of each other in Kd: ~80 nM for the first, 87 ± 13 nM for the second.

Compared with B23, B24 is 1.6-fold higher in Kd: 8.96 ± 0.33 nM for the first, 13.9 ± 0.8 nM for the second. The first binds more tightly here.

B25 and B26 are within 1.5-fold of each other in Kd: 23.1 ± 2.1 nM for the first, 33.3 ± 2.5 nM for the second.

Compared with B27, B28 is 2.1-fold higher in Kd: 28 ± 6 nM for the first, 59 ± 7 nM for the second. The first binds more tightly here.
